Usually EC50 stands for the concentration that produces a half-maximal response.

For assay [1], the target named is T1, ERβ (Homo sapiens, UniProt Q92731). Put plainly: Time resolved fluorescence (TRF) binding of europium-streptavidin peptide conjugates in the presence of modulators. Particulars: for EC50 / Equiv.: ERβ; for Equiv.: positive: % of maximum stimulation by the reference modulator, negative: % of reduction by ICI 182,780. Set-up: purchased PanVera Corporation, Madison, WI.

Assay [2] has as its target T1, ERβ. Put plainly: Phage ELISA / fingerprint on ER immobilized on biotinylated ERE (Examples 2.3-2.5). Particulars: probe α/β I (LXXLL motif). In general terms: ELISA stands for enzyme-linked immunosorbent assay.
For the next assay, the target named is T2, ERα (Homo sapiens, UniProt P03372).
T2 sequence (P03372 1-595): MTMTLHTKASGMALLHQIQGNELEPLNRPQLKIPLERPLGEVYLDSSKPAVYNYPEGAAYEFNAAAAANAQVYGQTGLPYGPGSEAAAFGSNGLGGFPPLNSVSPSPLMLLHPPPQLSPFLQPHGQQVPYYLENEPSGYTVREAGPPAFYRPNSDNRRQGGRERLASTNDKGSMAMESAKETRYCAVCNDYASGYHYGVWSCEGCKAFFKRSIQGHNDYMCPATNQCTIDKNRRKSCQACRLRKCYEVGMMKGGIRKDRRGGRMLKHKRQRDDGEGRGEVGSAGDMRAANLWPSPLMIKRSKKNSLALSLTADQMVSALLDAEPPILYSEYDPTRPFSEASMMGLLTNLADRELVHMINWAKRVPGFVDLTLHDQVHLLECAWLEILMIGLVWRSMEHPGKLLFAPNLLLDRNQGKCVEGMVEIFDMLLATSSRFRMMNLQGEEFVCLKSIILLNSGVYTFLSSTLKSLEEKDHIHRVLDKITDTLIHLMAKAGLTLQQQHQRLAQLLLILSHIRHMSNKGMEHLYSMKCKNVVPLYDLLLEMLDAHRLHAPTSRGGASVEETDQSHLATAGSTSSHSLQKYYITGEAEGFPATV
The assay is described as above. Format: binding. The arrangement: purchased PanVera Corporation, Madison, WI; key to binding activity, ERα and buffer / binding activity, ERα and estradiol / binding activity, ERα and tamoxifen / binding of peptide, Class Specific Fingerprint on ERα: semiquantitative scale of 0 to 7+; 1+: semiquantitative scale of 0 to 7+; 2+: semiquantitative scale of 0 to 7+; 3+: semiquantitative scale of 0 to 7+; 4+: semiquantitative scale of 0 to 7+; 5+: semiquantitative scale of 0 to 7+; 6+: semiquantitative scale of 0 to 7+; semiquantitative scale of 0 to 7+. Particulars: for binding activity, ERα and estradiol: ERα and estradiol (1 µM); for binding activity, ERα and tamoxifen: ERα and tamoxifen (4-OH tamoxifen, 1 µM).

Assay [3] addresses T1, ERβ. The description is as above. The class given is binding. The arrangement: purchased PanVera Corporation, Madison, WI; key: semiquantitative scale of 0 to 7+; 1+: semiquantitative scale of 0 to 7+; 2+: semiquantitative scale of 0 to 7+; 3+: semiquantitative scale of 0 to 7+; 4+: semiquantitative scale of 0 to 7+; 5+: semiquantitative scale of 0 to 7+; 6+: semiquantitative scale of 0 to 7+; semiquantitative scale of 0 to 7+. Particulars: for binding activity, ERβ and Estradiol: ERβ and Estradiol (1 µM); for binding activity, ERβ and tamoxifen: ERβ and tamoxifen (4-OH tamoxifen, 1 µM).

The mark [4] stands for this setting: TRF binding assay, in the presence of the compound.
Where [5] appears, read: 4-OH Tamoxifen present during binding.
The mark [6] stands for this setting: 16a-OH Estrone present during binding.
Where [7] appears, read: Clomiphene present during binding.
The mark [8] stands for this setting: Estradiol present during binding.
Setting [9] is: ICI 182,780 present during binding.
The mark [10] stands for this setting: Nafoxidine present during binding.
The mark [11] stands for this setting: Premarin present during binding.
The mark [12] stands for this setting: Progesterone present during binding.
The mark [13] stands for this setting: Raloxifene present during binding.

Read-outs that look alike come from different tables or passages of the source.

T1 sequence (Q92731 whole entry): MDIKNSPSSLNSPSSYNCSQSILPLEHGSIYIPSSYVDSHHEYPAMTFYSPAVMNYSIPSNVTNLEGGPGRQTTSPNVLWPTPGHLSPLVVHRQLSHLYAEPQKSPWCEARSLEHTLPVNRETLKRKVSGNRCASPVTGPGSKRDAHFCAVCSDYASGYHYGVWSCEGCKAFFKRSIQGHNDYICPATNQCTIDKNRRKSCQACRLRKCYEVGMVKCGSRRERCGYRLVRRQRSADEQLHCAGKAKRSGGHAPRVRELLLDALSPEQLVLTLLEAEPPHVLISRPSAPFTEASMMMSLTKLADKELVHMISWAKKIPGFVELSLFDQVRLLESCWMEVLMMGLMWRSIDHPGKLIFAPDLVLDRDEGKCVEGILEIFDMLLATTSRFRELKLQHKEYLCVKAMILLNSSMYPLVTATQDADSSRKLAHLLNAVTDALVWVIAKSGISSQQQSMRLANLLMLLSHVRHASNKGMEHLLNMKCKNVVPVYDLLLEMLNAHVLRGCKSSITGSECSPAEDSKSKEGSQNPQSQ

On to `CC/C(=C(\c1ccc(O)cc1)c1ccc(OCCN(C)C)cc1)c1ccccc1` [4-OH Tamoxifen, 4-OH tamoxifen], for which, on ERβ [1], the “binding of the β I probe to ER β” value was “enhanced”. The “binding of the probe α/β I to ER β in the presence of the ligand” value (“binding of the probe α/β I to ER β” for short) on ERβ [2] is on record as “prevented the binding”.
Take `CCN(CC)CCOc1ccc(C(=C(Cl)c2ccccc2)c2ccccc2)cc1` [Clomiphene, clomiphene]: the “binding of the β I probe to ER β” value on ERβ [1] (setting [4]) is reported as “reduced”. Besides, the EC50 at ERβ [1] (peptide probe α/βIII) came out at 82.2 nM; on ERβ [1] (peptide probe α/βV) it was 150 nM; on ERβ [1] (peptide probe βI) it was 135 nM; at ERβ [1] (peptide probe βIII), 123 nM. Also, the Equiv. was 34% on ERβ [1] (peptide probe α/βIII); 0% at ERβ [1] (peptide probe α/βIV); 13% at ERβ [1] (peptide probe α/βV); -62% at ERβ [1] (peptide probe βI); -61% on ERβ [1] (peptide probe βIII). Also, the “binding of the probe α/β I to ER β” value at ERβ [2] is given as “prevented the binding”.
`CC/C(=C(/CC)c1ccc(O)cc1)c1ccc(O)cc1` [DES, diethylstilbestrol]: the “binding of the β I probe to ER β” value at ERβ [1] (setting [4]) is “reduction”.
Turning to `CC/C(=C(\c1ccc(O)cc1)c1ccc(/C=C/C(=O)O)cc1)c1ccccc1` [GW 7604], the Equiv. at ERβ [1] (peptide probe α/βI) and at ERβ [1] (peptide probe α/βV) was 0% throughout.
As to `C[C@]12CC[C@@H]3c4ccc(O)cc4C[C@@H](CCCCCCCCC[S+]([O-])CCCC(F)(F)C(F)(F)F)[C@H]3[C@@H]1CC[C@@H]2O` (stereo partly drawn) [ICI 182,780], the “binding of the probe α/β I to ER β” value on ERβ [2] is “prevented the binding”.
Take `O=C(c1ccc(OCCN2CCCCC2)cc1)c1c(-c2ccc(O)cc2)sc2cc(O)ccc12` [raloxifene]: at ERβ [1], the “binding of the β I probe to ER β” value is on record as “reduced”. In addition, the “binding of the probe α/β I to ER β” value on ERβ [2] is reported as “prevented the binding”.
Consider SSTTMFDFFYERLSR [Peptide 6t-β], for which, in the assay with ERα, the “binding activity, ERα and buffer” value is reported as 4+; the “binding activity, ERα and estradiol” value is on record as 4+; the “binding activity, ERα and tamoxifen” value was 6+. Further, in the assay with ERβ [3], the “binding activity, ERβ and Estradiol” value is on record as 4+; the “binding activity, ERβ and buffer” value was 7+; the “binding activity, ERβ and tamoxifen” value is 7+.
Take SSTTWRCPEWYCGSR [Peptide 30E-β]: in the assay with ERα, the “binding activity, ERα and buffer” value is listed as 4+; the “binding activity, ERα and estradiol” value is 3+; the “binding activity, ERα and tamoxifen” value is 3+. In the assay with ERβ [3], the “binding activity, ERβ and Estradiol” value is 7+; the “binding activity, ERβ and buffer” value was 6+; the “binding activity, ERβ and tamoxifen” value is 3+.
As to SSVASREWWVRELSR [Peptide 15t-β], in the assay with ERα, the “binding activity, ERα and buffer” value is on record as 3+; the “binding activity, ERα and estradiol” value is 2+; the “binding activity, ERα and tamoxifen” value is listed as 5+. For the same compound, in the assay with ERβ [3], the “binding activity, ERβ and Estradiol” value was 2+; the “binding activity, ERβ and buffer” value was 6+; the “binding activity, ERβ and tamoxifen” value is 7+.
As for SSVFTIMDGKVALSR [Peptide 1t-β], in the assay with ERα, the “binding activity, ERα and buffer” value is 3+; the “binding activity, ERα and estradiol” value was 3+; the “binding activity, ERα and tamoxifen” value is given as 7+. Besides, in the assay with ERβ [3], the “binding activity, ERβ and Estradiol” value is given as 2+; the “binding activity, ERβ and buffer” value is reported as 3+; the “binding activity, ERβ and tamoxifen” value is given as 7+.
SSWDFRVPWWYNNSR [Peptide 31E-β]: in the assay with ERα, the “binding activity, ERα and buffer” value was 3+; the “binding activity, ERα and estradiol” value is on record as 2+; the “binding activity, ERα and tamoxifen” value is reported as 3+. Moreover, in the assay with ERβ [3], the “binding activity, ERβ and Estradiol” value was 7+; the “binding activity, ERβ and buffer” value is 3+; the “binding activity, ERβ and tamoxifen” value is on record as 2+.
As for SSWNSREFFLSQLSR [Peptide 5t-β], in the assay with ERα, the “binding activity, ERα and buffer” value was 3+; the “binding activity, ERα and estradiol” value is reported as 2+; the “binding activity, ERα and tamoxifen” value was 5+. For the same compound, in the assay with ERβ [3], the “binding activity, ERβ and Estradiol” value is given as 2+; the “binding activity, ERβ and buffer” value is given as 2+; the “binding activity, ERβ and tamoxifen” value is on record as 7+.
SSWPGAEWFKEQLSR [Peptide 20b-β]: in the assay with ERα, the “binding activity, ERα and buffer” value is on record as 4+; the “binding activity, ERα and estradiol” value was 3+; the “binding activity, ERα and tamoxifen” value is reported as 4+. In addition, in the assay with ERβ [3], the “binding activity, ERβ and Estradiol” value is 4+; the “binding activity, ERβ and buffer” value is given as 7+; the “binding activity, ERβ and tamoxifen” value is listed as 5+.
For SSWPNPTFWERQLSR [Peptide 3b-β], in the assay with ERα, the “binding activity, ERα and buffer” value is listed as 5+; the “binding activity, ERα and estradiol” value is given as 3+; the “binding activity, ERα and tamoxifen” value was 3+. Further, in the assay with ERβ [3], the “binding activity, ERβ and Estradiol” value is 2+; the “binding activity, ERβ and buffer” value is listed as 5+.
Consider SSYDWQCPSWYCPAPPSSR [Peptide 29E-β], for which, in the assay with ERα, the “binding activity, ERα and buffer” value is given as 3+; the “binding activity, ERα and estradiol” value is 4+; the “binding activity, ERα and tamoxifen” value was 3+. In the assay with ERβ [3], the “binding activity, ERβ and Estradiol” value is recorded as 7+; the “binding activity, ERβ and buffer” value is given as 7+; the “binding activity, ERβ and tamoxifen” value is 5+.
In the case of SSYEIPKWALQWLSR [Peptide 34E-β], in the assay with ERα, the “binding activity, ERα and buffer” value was 5+; the “binding activity, ERα and estradiol” value is 3+; the “binding activity, ERα and tamoxifen” value is reported as 4+. Also, in the assay with ERβ [3], the “binding activity, ERβ and Estradiol” value is reported as 6+; the “binding activity, ERβ and buffer” value is recorded as 4+; the “binding activity, ERβ and tamoxifen” value is given as 2+.
With SWDMHQFFWEGVSR [Peptide 2PT], the “binding of peptide, Class Specific Fingerprint on ERα” value in the assay with ERα (setting [5]) is recorded as 7+; with ERα (setting [6]), 2+; with ERα (setting [7]) it was 6+; with ERα (DES present during binding), 1+; with ERα (setting [8]), 1+; with ERα (Estriol present during binding) it was 1+. Moreover, the “binding of peptide, Class Specific Fingerprint on ERα” value with ERα (setting [9]) is reported as 1+; in the assay with ERα (setting [10]), 4+; in the assay with ERα (setting [11]) it was 2+; with ERα (setting [12]) it was 2+; with ERα (setting [13]), 4+; with ERα (buffer present during binding) it was 1+. Also, the “binding of peptide, Class Specific Fingerprint on ERβ” value in the assay with ERβ [3] (setting [5]) was 7+; in the assay with ERβ [3] (setting [6]) it was 1+; with ERβ [3] (setting [7]), 5+; with ERβ [3] (DES present during binding), 1+; with ERβ [3] (setting [8]), 1+; with ERβ [3] (Estriol present during binding), 1+. Also, the “binding of peptide, Class Specific Fingerprint on ERβ” value with ERβ [3] (setting [9]) is given as 1+; with ERβ [3] (setting [10]), 3+; with ERβ [3] (setting [11]), 1+; in the assay with ERβ [3] (setting [12]) it was 1+; in the assay with ERβ [3] (setting [13]), 6+; in the assay with ERβ [3] (buffer present during binding), 2+.
In the case of SYSKEWFEERLNSR [Peptide 4b-β], in the assay with ERα, the “binding activity, ERα and buffer” value was 4+; the “binding activity, ERα and estradiol” value is listed as 3+; the “binding activity, ERα and tamoxifen” value is reported as 3+. In addition, in the assay with ERβ [3], the “binding activity, ERβ and Estradiol” value is 3+; the “binding activity, ERβ and buffer” value is given as 7+; the “binding activity, ERβ and tamoxifen” value was 3+.

(Values after EP1073891B1, “METHOD OF PREDICTING RECEPTOR MODULATING ACTIVITY” (Duke University, priority 1998, dated 1999).)
